In article PMC10866649:

Experiments:
[1] = biological target: Human neonatal Fc receptor (hFcRn), P55899; experiment: SPR; biolayer interferometry (citing paragraph); details: chain shown with the change
[2] = biological target: T1, Human dendritic cell–specific ICAM-3–grabbing non-integrin (DC-SIGN; CD209), Q9NNX6; experiment: flow cytometry on cells (hDC-SIGN+/SIGN-R1-/- murine BMDMs); details: type I FcγRs blocked; PBS control = 1; read off a plot
T1 chain: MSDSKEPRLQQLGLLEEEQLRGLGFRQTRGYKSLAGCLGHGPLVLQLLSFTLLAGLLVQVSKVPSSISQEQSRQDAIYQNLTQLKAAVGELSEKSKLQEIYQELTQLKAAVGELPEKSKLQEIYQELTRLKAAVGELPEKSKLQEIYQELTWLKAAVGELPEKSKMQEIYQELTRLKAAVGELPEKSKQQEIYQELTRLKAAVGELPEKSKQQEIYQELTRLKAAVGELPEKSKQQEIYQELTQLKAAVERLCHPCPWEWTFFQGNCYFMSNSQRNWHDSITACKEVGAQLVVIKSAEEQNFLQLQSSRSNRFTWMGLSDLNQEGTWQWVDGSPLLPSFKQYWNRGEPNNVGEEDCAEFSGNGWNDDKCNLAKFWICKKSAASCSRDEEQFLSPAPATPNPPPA

Chain of Human neonatal Fc receptor (hFcRn), P55899 (P55899 24-297, chain 1 of 2): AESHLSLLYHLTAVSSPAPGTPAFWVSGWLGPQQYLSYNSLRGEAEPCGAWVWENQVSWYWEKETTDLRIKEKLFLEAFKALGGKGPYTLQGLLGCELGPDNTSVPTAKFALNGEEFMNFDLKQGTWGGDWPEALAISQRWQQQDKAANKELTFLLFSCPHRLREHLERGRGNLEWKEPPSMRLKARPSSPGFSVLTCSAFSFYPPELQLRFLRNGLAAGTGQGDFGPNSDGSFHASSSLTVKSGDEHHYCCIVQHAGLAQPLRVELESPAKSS
Chain of Human neonatal Fc receptor (hFcRn), P55899 (chain, as listed by the source, chain 2 of 2): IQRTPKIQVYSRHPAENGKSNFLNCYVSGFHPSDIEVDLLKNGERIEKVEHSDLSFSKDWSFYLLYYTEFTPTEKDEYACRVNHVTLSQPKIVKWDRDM

B1: Wild-type human IgG1 Fc (Fc^WT) M252Y; S254T; T256E; H433K; N434F (protein)
chain: DKTHTCPPCPAPELLGGPSVFLFPPKPKDTLYITREPEVTCVVVDVSHEDPEVKFNWYVDGVEVHNAKTKPREEQYNSTYRVVSVLTVLHQDWLNGKEYKCKVSNKALPAPIEKTISKAKGQPREPQVYTLPPSRDELTKNQVSLTCLVKGFYPSDIAVEWESNGQPENNYKTTPPVLDSDGSFFLYSKLTVDKSRWQQGNVFSCSVMHEALKFHYTQKSLSLSPGK
In the case of B1, the Kd [1] is reported as 5.2 nM and the response (fold change in MFI (normalized to PBS)) [2] is reported as 1.4.
